Data set [1] deals with B25C insulin precursor (human) (UniProt P01308). Kind of data set: LC/MS; LC/MS of the fermentations; mass of a disulfide-linked dimer.
For data set [2] the following is noted: hexameric insulin, previously determined, ref 65 (HI), 66 (bovine), 67 (porcine), cited from earlier work. An excerpt:
Table 2 The experimental parameters determined from the fit in Figure 2 and results previously determined for hexameric insulin of human and porcine origin. | column: Standard Sedimentation Coefficient s20,w, [S]; Standard Diffusion Coefficient D20,w, (×10−7 [cm^2/s]); Molar mass [kg/mole]; Rh [nm]

Marks after values point to notes of the source that are not given here.

On to “B25C insulin precursor (from UniProt P01308 1-29)”, for which the stoichiometry N in data set [1] worked out at 2.
As to “Bovine insulin: hexameric bovine insulin, literature values”, the “Standard Sedimentation Coefficient s20,w” value in data set [2] (HI probably affected by non-ideality) was 3.12 S. Moreover, in data set [2], the Molar mass was 34.4 kg/mol, the Rh is on record as 2.63 nm and the “Standard Diffusion Coefficient D20,w” value is 8.35 ^* ×10−7 cm^2/s.

Broadly, the stoichiometry N is the number of molecules, sites or subunits per partner or assembly.
